Test [1] has as its target HLA-A*0201 molecules on T2 cells (human (endogenous in T2)). Nature of the test: flow cytometry on cells.
For a further test, the target named is HLA-A*0201 molecules (Homo sapiens, UniProt P04439, D140Y/D185E/D98H/E176V/E277Q/G131W/G231S/I119V/I121R/I166T/I218V/L300P/L318F/N151K/N90K/P208A/P217A/Q86G/Q94H/R138H/R169H/T345S). Kind of test: T2 binding assay (MHC stabilization assay with T2 cells, flow cytometry). The format is cell-based. The following applies: FI = (mean FITC fluorescence with peptide − without peptide)/(without peptide), high affinity FI ≥1, representative of three independent experiments. The source says:
(A) The overlapping method of 8 aa overlap was used to synthesize a total of 191 nonapeptides covering HBc aa 1–150. […] (C and D) Measurement of the binding affinity of HBc141–149N- or C-terminally truncated (C) or extended (D) peptides to HLA-A*0201. HBc82-90 served as a negative control (NC). (E) In vitro refolding of HBC141–149 peptide with HLA-A*0201 heavy chain and β2m. Gel filtration chromatography was used to analyze the refolded complexes on a Superdex200 16/60 column. […] The HLA complex (peak 2) was analyzed by SDS-PAGE electrophoresis and coomassie blue staining
T2 cells were used to perform MHC stabilization assays as previously described (Zhou et al., [2006]). The binding activity of each peptide was calculated as the fluorescent index (FI), and the FI was determined by: (mean FITC fluorescence with the given peptide − mean FITC fluorescence without peptide) (mean FITC fluorescence without peptide).

For test [2], the system named is peptide-specific CTLs. Kind of test: Ex vivo IFN-γ ELISPOT on PBMCs from HLA-A2+ AHB patients. It is filed as cell-based, human. As to conditions: PBMCs 2 × 10^5/well from HLA-A2+ AHB patients (n = 19), 50 μg/mL peptide; mean ± SD (Fig. 3D).
Source text: (D) AHB patients (n = 29) were divided into HLA-A2-positive (n = 19) and HLA-A2-negative (n = 10) groups. PBMCs (2 × 10^5/well) from these patients were stimulated with the indicated peptides for detection of peptide-specific CTLs by ELISPOT assay. […] PBMCs from HLA-A2- patients were used for specificity evaluation of CTLs. Paired samples t-tests were used for ELISPOT assay in AHB patients. *P < 0.05 and **P < 0.01 by t-test. Data are representative of two independent experiments
A total of 29 AHB patients were enrolled for blood collection, which were divided into two groups: HLA-A2-positive (n = 19) and HLA-A2-negative (n = 10). All patients were negative for HCV, HDV, and HIV-1 infection. 10 mL of blood samples were collected from each patient.
To detect epitope-specific T cells, enzyme-linked immunosorbent spot (ELISPOT) assay was performed according to the manufacturer’s instruction. Briefly, ninety-six well PVDF plates (BD-Pharmigen, San Diego, CA) were precoated overnight at 4°C with the coating Ab and blocked for 1 h at 37°C. Patient PBMCs (2 × 10^5) or murine splenocytes (10^6) were added to each well together with 50 μg/mL of peptide and incubated at 37°C for 24–48 h with phytohemagglutinin (PHA)-stimulated T cells as positive controls. Each test was performed at least in triplicate. The spots were counted and analyzed using an ELISPOT Reader (Cellular Technology Ltd, USA).
For test [3], the system named is peptide-specific CTLs. Kind of test: IFN-γ ELISPOT on splenocytes of immunized HLA-A2.1/Kb transgenic mice. The following applies: female HLA-A2.1/Kb mice, HBc DNA prime/peptide boost with gp96 adjuvant, 1 week after last immunization; 5 × 10^5 splenocytes; mean ± SD of five mice (Fig. 3A). The format is in vivo. How it is done: Figure 3 Detection of HBc141–149 peptide-specific CD8 ^+ T cell response in HLA-A2.1/Kb mice and AHB patients. Female HLA-A2.1/Kb transgenic mice were immunized with an HBV DNA prime/peptide boost regimen at weeks 1, 3, and 4. […] (B and C) 293T cells labeled with CFSE were transfected with pHBV1.3 as target cells (B), and T2 cells labeled with CFSE were loaded with 20 μg/mL peptide at 37°C for 1 h as target cells (C). […] After 4 h, the mixed samples were stained with PI, and the killing of target cells were analyzed by FACS. The data shown are the mean ± SD of five mice. (D) AHB patients (n = 29) were divided into HLA-A2-positive (n = 19) and HLA-A2-negative (n = 10) groups. PBMCs (2 × 10^5/well) from these patients were stimulated with the indicated peptides for detection of peptide-specific CTLs by ELISPOT assay. HBc82–90 peptide served as negative control for background evaluation in ELISPOT assay. PBMCs from HLA-A2- patients were used for specificity evaluation of CTLs. Paired samples t-tests were used for ELISPOT assay in AHB patients. *P < 0.05 and **P < 0.01 by t-test. Data are representative of two independent experiments […]
To detect epitope-specific T cells, enzyme-linked immunosorbent spot (ELISPOT) assay was performed according to the manufacturer’s instruction. […] The spots were counted and analyzed using an ELISPOT Reader (Cellular Technology Ltd, USA).

From publication PMC3978166, “A new unconventional HLA-A2-restricted epitope from HBV core protein elicits antiviral cytotoxic T lymphocytes” (Protein & Cell, 2014) come the findings set out here.

The substance HBc60–68 (V60) peptide showed an FI (fluorescent index) in test [1] of 2.64.

In test [1], HBc140–149 peptide yielded an FI (fluorescent index) of 0.033.

As to HBc141–148 peptide, the FI (fluorescent index) in test [1] is 0.124.

In test [1], HBc141–149 peptide came in with an FI (fluorescent index) of 2.41.

With HBc141–150 peptide, in test [1], the FI (fluorescent index) amounted to 0.005.

For HBc142–149 peptide, the FI (fluorescent index) in test [1] was determined as 0.151.

“LSTLPETTVV [HBc140–149, extended decapeptide of HBc141–149, […]]”: on HLA-A*0201 molecules, the “FI (fluorescent index), binding to HLA-A*0201” value (from here on “FI (fluorescent index), binding”) was determined as 0.033.

For RELVVSYVN [HBc82–90], the “peptide-specific CTL response, ex vivo IFN-γ ELISPOT” value with peptide-specific CTLs [2] is 20.94 ± 17.57. Also, the “peptide-specific CTL response, IFN-γ ELISPOT (SFC)” value with peptide-specific CTLs [3] was “No peptide-specific CD8^+ T cell response was detected”.

As to STLPETTV [HBc141–148], on HLA-A*0201 molecules, the “FI (fluorescent index), binding” value is listed as 0.124.

In the case of TLPETTVV [HBc142–149], at HLA-A*0201 molecules, the “FI (fluorescent index), binding” value is listed as 0.151.
